From patent publication US20100256338A1 (Hoffmann-La Roche, published 2010)

Experiments:
EGFR-ECD = target: T1, EGFR-ECD (human, UniProt P00533 25-645); assay: SPR (Biacore T100), antibody captured by anti-human IgG, EGFR-ECD as analyte, 25 C
T1 construct: extracellular domain; also called human EGF-Receptor

[1] = target: T2, IGF-1R (soluble analyte in SPR) (human, UniProt P08069 31-932, limits assumed); assay: SPR (Biacore T100), antibody captured by anti-human IgG, IGF-1R as analyte, 25 C
T2 construct: also called human IGF1-Receptor

Kd (EGFR-ECD)	Kd [1]	Binder
0.5 nM		humanized <EGFR>ICR62 (antibody, V domains shown, Humanized rat anti-EGFR antibody, 'wildtype' IgG parent; also called humanized rat anti-EGFR antibody <EGFR>ICR62) VH: QVQLVQSGAEVKKPGSSVKVSCKASGFTFTDYKIHWVRQAPGQGLEWMGYFNPNSGYSTYAQKFQGRVTITADKSTSTAYMELSSLRSEDTAVYYCARLSPGGYYVMDAWGQGTTVTVSS VL: DIQMTQSPSSLSASVGDRVTITCRASQGINNYLNWYQQKPGKAPKRLIYNTNNLQTGVPSRFSGSGSGTEFTLTISSLQPEDFATYYCLQHNSFPTFGQGTKLEIKR
0.5 nM	11 nM	scFab-XGFR2_2720 (bispecific antibody) chain 1: not shown chain 2: DIQMTQSPSSLSASVGDRVTITCRASQGINNYLNWYQQKPGKAPKRLIYNTNNLQTGVPSRFSGSGSGTEFTLTISSLQPEDFATYYCLQHNSFPTFGQGTKLEIKRTVAAPSVFIFPPSDEQLKSGTASVVCLLNNFYPREAKVQWKVDNALQSGNSQESVTEQDSKDSTYSLSSTLTLSKADYEKHKVYACEVTHQGLSSPVTKSFNRGEC
